In US10973880B2, “Compositions and methods for treating pulmonary hypertension” (Acceleron Pharma Inc., priority 2016, dated 2021):
Residue numbers refer to the chain shown, from its start. Numbers in names are those of the source. Each block holds one molecule with its values, some of them ahead of it.

Assays:
GDF11 [1] = biological target: T1, GDF11 (Homo sapiens, UniProt O95390); assay: ActRIIB-Fc affinity for ligand (description); assay type: binding; details: ascertained by Applicants
T1 sequence (O95390 299-407): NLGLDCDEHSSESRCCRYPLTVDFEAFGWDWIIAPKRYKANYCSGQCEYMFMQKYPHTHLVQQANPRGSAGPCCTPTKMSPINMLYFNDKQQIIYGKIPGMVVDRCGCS

activin = assay: ActRIIB-Fc affinity for ligand (description); assay type: binding; details: ascertained by Applicants
GDF8 [2] = biological target: T2, GDF8 (Homo sapiens, UniProt O14793); assay: Biacore-based binding assay, receptor captured with anti-Fc antibody
T2 sequence (O14793 267-375): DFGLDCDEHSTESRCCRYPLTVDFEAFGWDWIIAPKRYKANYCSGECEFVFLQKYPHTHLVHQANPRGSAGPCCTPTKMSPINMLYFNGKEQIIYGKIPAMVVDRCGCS
Protocol: (§1) A Biacore™-based binding assay was used to compare ligand binding selectivity of the ALK4-Fc:ActRIIB-Fc heterodimeric complex described above with that of ActRIIB-Fc and ALK4-Fc homodimer complexes. The ALK4-Fc:ActRIIB-Fc heterodimer, ActRIIB-Fc homodimer, and ALK4-Fc homodimer were independently captured onto the system using an anti-Fc antibody. Ligands were injected and allowed to flow over the captured receptor protein. Results are summarized in the table below, in which ligand off-rates (kd) most indicative of effective ligand traps are denoted in bold font.

GDF11 [3] = biological target: T1, GDF11; assay: as above
Protocol: as §1

activin A [4] = biological target: T3, activin A (Homo sapiens, UniProt P08476); assay: as above
T3 sequence (P08476 311-426): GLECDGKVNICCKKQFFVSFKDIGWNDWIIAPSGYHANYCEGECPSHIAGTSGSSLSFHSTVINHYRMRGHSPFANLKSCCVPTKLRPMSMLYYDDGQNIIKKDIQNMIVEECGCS
Protocol: as §1

activin B = biological target: T4, activin B (Homo sapiens, UniProt P09529); assay: as above
T4 sequence (P09529 293-407): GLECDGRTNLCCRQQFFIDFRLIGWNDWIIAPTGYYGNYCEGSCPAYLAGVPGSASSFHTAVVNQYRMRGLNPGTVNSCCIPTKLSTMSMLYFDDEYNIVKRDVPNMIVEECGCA
Protocol: as §1

activin A [5] = biological target: T3, activin A; assay: A-204 reporter gene assay, pGL3(CAGA)12 luciferase; assay type: cell-based; details: A-204 reporter gene assay
Excerpt: An A-204 reporter gene assay was used to evaluate the effects of ActRIIB-Fc proteins and GDF traps on signaling by GDF-11 and activin A. Cell line: human rhabdomyosarcoma (derived from muscle). Reporter vector: pGL3(CAGA)12 (described in Dennler et al, 1998, EMBO 17: 3091-3100). The CAGA12 motif is present in TGF-beta responsive genes (e.g., PAI-1 gene), so this vector is of general use for factors signaling through SMAD2 and 3.
Day 1: Split A-204 cells into 48-well plate.
Day 2: A-204 cells transfected with 10 ug pGL3(CAGA)12 or pGL3(CAGA)12(10 ug)+pRLCMV (1 μg) and Fugene.
Day 3: Add factors (diluted into medium+0.1% BSA). Inhibitors need to be preincubated with factors for 1 hr before adding to cells. Six hrs later, cells were rinsed with PBS and lysed.
This is followed by a luciferase assay.
(§2) In addition, an A-204 Reporter Gene Assay was used to evaluate the effects of ALK4-Fc:ActRIIB-Fc heterodimer and ActRIIB-Fc:ActRIIB-Fc homodimer on signaling by activin A, activin B, GDF11, GDF8, BMP10, and BMP9. Cell line: Human Rhabdomyosarcoma (derived from muscle). Reporter vector: pGL3(CAGA)12 (as described in Dennler et al, 1998, EMBO 17: 3091-3100). The CAGA12 motif is present in TGFβ responsive genes (PAI-1 gene), so this vector is of general use for factors signaling through Smad2 and 3. An exemplary A-204 Reporter Gene Assay is outlined below. • Day 1: Split A-204 cells into 48-well plate. • Day 2: A-204 cells transfected with 10 ug pGL3(CAGA)12 or pGL3(CAGA)12(10 ug)+pRLCMV (1 ug) and Fugene. • Day 3: Add factors (diluted into medium+0.1% BSA). Inhibitors need to be pre-incubated with Factors for about one hr before adding to cells. About six hrs later, cells are rinsed with PBS and then lysed.
(§3) Following the above steps, a Luciferase assay was performed.

GDF8 [6] = biological target: T2, GDF8; assay: Biacore assay, receptor captured with anti-hFc antibody; assay type: binding
Protocol: (§4) Binding of certain ActRIIB-Fc proteins and GDF traps to ligands was tested in a Biacore assay.
(§5) The ActRIIB-Fc variants or wild-type protein were captured onto the system using an anti-hFc antibody. Ligands were injected and flowed over the captured receptor proteins.

GDF11 [7] = biological target: T1, GDF11; assay: as above; assay type: binding
Protocol: as §4, §5

activin A [8] = biological target: T3, activin A; assay: as above; assay type: binding
Protocol: as §4, §5

GDF11 [9] = biological target: T1, GDF11; assay: A-204 reporter gene assay, pGL3(CAGA)12 luciferase; assay type: cell-based; details: A-204 reporter gene assay
Excerpt: (§6) Day 1: Split A-204 cells into 48-well plate. […]
as §2, §3

GDF8 [10] = biological target: T2, GDF8; assay: A-204 reporter gene assay, pGL3(CAGA)12 luciferase; assay type: cell-based; set-up: host or cells: exogenous factor added to A-204 cells (human rhabdomyosarcoma); details: A-204 reporter gene assay
Excerpt: as §6, §2, §3

B1: A64 20-134: ActRIIB-Fc, amino acids 20-134 of SEQ ID NO: 1 with alanine at position 64 (protein)
chain: GRGEAETRECIYYNANWELERTNQSGLERCEGEQDKRLHCYASWANSSGTIELVKKGCWLDDFNCYDRQECVATEENPQVYFCCCEGNFCNERFTHLPEAGGPEVTYEPPPTAPT
modifications: Fc fusion partner without entry
affinity for GDF11 (GDF11 [1]): relatively low affinity
affinity for activin (activin): relatively low affinity

B2: ALK4-Fc homodimer: homodimer complex of ALK4-Fc fusion polypeptide (protein)
chain: SGPRGVQALLCACTSCLQANYTCETDGACMVSIFNLDGMEHHVRTCIPKVELVPAGKPFYCLSSEDLRNTHCCYTDYCNRIDLRVPSGHLKEPEHPSMWGPVE
modifications: left off: a dimerising Fc or GST
notes: homodimer complex of ALK4-Fc fusion polypeptide
ka, GDF8 (GDF8 [2]): 130000 M⁻¹ s⁻¹
kd, GDF8 (GDF8 [2]): 0.0019 s⁻¹
ka, GDF11 (GDF11 [3]): 4.8e+06 M⁻¹ s⁻¹
kd, GDF11 (GDF11 [3]): 0.0048 s⁻¹
ka, Activin A (activin A [4]): 580000 M⁻¹ s⁻¹
kd, Activin A (activin A [4]): 0.012 s⁻¹
KD, Activin B (activin B): No binding

B3: ActRIIB(20-134)-hFc: extracellular domain of human ActRIIB (20-134, R64) fused to a human Fc domain with a minimal linker (SEQ ID NO: 40) (protein)
chain: GRGEAETRECIYYNANWELERTNQSGLERCEGEQDKRLHCYASWRNSSGTIELVKKGCWLDDFNCYDRQECVATEENPQVYFCCCEGNFCNERFTHLPEAGGPEVTYEPPPTAPTGGGTHTCPPCPAPELLGGPSVFLFPPKPKDTLMISRTPEVTCVVVDVSHEDPEVKFNWYVDGVEVHNAKTKPREEQYNSTYRVVSVLTVLHQDWLNGKEYKCKVSNKALPVPIEKTISKAKGQPREPQVYTLPPSREEMTKNQVSLTCLVKGFYPSDIAVEWESNGQPENNYKTTPPVLDSDGSFFLYSKLTVDKSRWQQGNVFSCSVMHEALHNHYTQKSLSLSPGK
affinity for GDF11 (GDF11 [1]): low nanomolar to high picomolar range
inhibition of activin A activity (activin A [5]): potent inhibitor
Koff, GDF8 (GDF8 [6]): 3.45e-05 s⁻¹
Koff, GDF11 (GDF11 [7]): 0.000113 s⁻¹
Koff, Activin A (activin A [8]): 0.000159 s⁻¹
Kon, Activin A (activin A [8]): 5.94e+06 M⁻¹ s⁻¹
affinity for activin (activin): low nanomolar to high picomolar range
inhibition of GDF-11 activity (GDF11 [9]): potent inhibitor
inhibition of GDF-8 activity (GDF8 [10]): potent inhibitor

B5: ActRIIB(A24N 20-134)-hFc: ActRIIB(20-134)-hFc variant with A24N mutation (protein)
chain: B3 chain with A5N
Koff, GDF11 (GDF11 [7]): 6.35e-05 s⁻¹
Koff, Activin A (activin A [8]): 0.000346 s⁻¹
Kon, Activin A (activin A [8]): 3.34e+06 M⁻¹ s⁻¹

B6: ActRIIB(L79D 20-134)-hFc: GDF trap: ActRIIB amino acids 20-134 with L79D substitution fused to human Fc (SEQ ID NO: 46) (protein)
chain: B3 chain with L60D
Koff, GDF8 (GDF8 [6]): 0.00083 s⁻¹
Koff, GDF11 (GDF11 [7]): 0.000439 s⁻¹
KD, Activin A (activin A [8]): Low binding

Results, then the molecule that gave them:

Koff, GDF8 (GDF8 [6]): 4.71e-05 s⁻¹
Koff, GDF11 (GDF11 [7]): 2.41e-05 s⁻¹
Koff, Activin A (activin A [8]): 0.000325 s⁻¹
Kon, Activin A (activin A [8]): 6.82e+06 M⁻¹ s⁻¹
B4: ActRIIB(R64K 20-134)-hFc: ActRIIB(20-134)-hFc variant with R64K mutation (protein)
chain: B3 chain with R45K

Koff, GDF8 (GDF8 [6]): 0.0009 s⁻¹
Koff, GDF11 (GDF11 [7]): 0.000274 s⁻¹
KD, Activin A (activin A [8]): Low binding
B7: ActRIIB(L79E 20-134)-hFc: GDF trap form with a glutamate rather than an aspartate at position 79, human Fc fusion (protein)
chain: B3 chain with L60E
